Test results from the supplement of paper PMC12042874.
± gives the uncertainty stated by the source.

Experiment: amyloid nucleation score (Sup35N fusion, yeast selection) (log enrichment); library NNK1; higher = more nucleation; inactive = no reads after selection
Method in brief: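 Psi-negative yeast expressed Sup35N fused to peptides of 20 random codons. They were induced 24 hours with 100 μM copper sulfate, grown 7 days at 30°C without adenine and uracil, and their plasmid inserts from input and output were Illumina-sequenced. The nucleation score is the DiMSum log enrichment of output over input reads, centred on the mode score of non-aggregating sequences. Sequences with under 100 input reads were excluded.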

| Substance | amyloid nucleation score |
| --- | --- |
| CFGFFVWANHAYHAQRCVAS | 1.29 ± 0.33 |
| SSEIDYVFMAPREV | -0.06 ± 0.63 |
| LFIRGMIDDKVSITNYVC | -0.546 ± 0.31 |
| GDRVAEFQFPLSYTRPELSL | 0.046 ± 0.72 |
| SSEDAVRLLLIVIFFLTFKF | 0.778 ± 0.49 |
| QEYRDMILKPFHRWFTMFK | 0.941 ± 0.44 |
| VFRTLHSPSVSSGRWSSELS | -0.475 ± 0.5 |
| LSIFVF | 1.75 ± 0.25 |
| FCYYKCNESGP | -0.751 ± 0.71 |
| FFFNCMRWSCMKVDHTGFVG | -0.255 ± 0.47 |
| LPVLLSFVSYGS | -0.162 ± 0.34 |
| QFIRILDQSKILYLCCFLDT | 5.64 ± 0.061 |
| LRFRFSLANAEGLMLPVRHK | -0.216 ± 0.48 |
| ATRSSSFRMHDKNLCLTVDM | 0.855 ± 0.48 |
| NDSNSPIFPGGDHPWCGFDW | 0.089 ± 0.88 |
| YRHPVMTWEPSRDLSFVLCL | 0.388 ± 0.84 |
| MHYWGTGKHQINTWNMILFI | 3.95 ± 0.11 |
| MSNFLTELGNNSTHREDGER | 0.501 ± 0.78 |
| FGWLFVCEVSAAGPPTLIWT | 3.11 ± 0.15 |
| LATNFCDTMRYVNGFRIAWC | 0.647 ± 0.66 |
| NAFSYTGRYIGLPRELGVLR | 1.06 ± 0.52 |
| SRILRLLHTVHCDGVGERLR | -0.104 ± 1.1 |
| RWCGKPRICFSISEAVDKLH | -0.2 ± 0.21 |
| IVTRWY | -0.257 ± 0.21 |
| DRLSAT | 0.272 ± 1.2 |

| Substance | amyloid nucleation score |
| --- | --- |
| KPDRQVANFRDWFG | -0.244 ± 1.2 |
| FGEYSCGRREMPYCFLDYYL | 0.356 ± 0.41 |
| SMMYKVSFGGGVFVLKLLVK | 0.266 ± 0.3 |
| CITTVPHQPMVLWTICFPTM | 0.614 ± 0.95 |
| REGATIPWFRCNRLE | -0.167 ± 0.33 |
| EYRFVN | -0.227 ± 0.28 |
| EGTFLSGEHTFLNLGFSNRG | 0.019 ± 0.6 |
| NYAAPVSCRGLADEGRSRTD | -0.4 ± 0.49 |
| KFYYSLDVSSRCNFVLLEVE | 0.669 ± 0.65 |
| MIGTYRWMLIMGLETVRKGG | inactive |
| WLNWSSYRRTISKLVRGFFS | -0.295 ± 1.9 |
| LGMCFENSPVNLFWAIDSQM | 1.95 ± 0.37 |
| NGMLFCT | 0.267 ± 0.79 |
| GRMEGTGNYMVYKDQEGVNG | inactive |
| HIGGTFVWLEFPCKWGLTED | 4.46 ± 0.069 |
| YAYEIGFVILQFFNNRVFAL | inactive |
| YARSSFEDIVVFRDRFG | 5.47 ± 0.092 |
| LFTSVYL | -0.173 ± 0.53 |
| SQSIAVCMVKCNCDCVHIGE | 6.126 ± 0.05 |
| AALWHFNFINRSFRTVGPAG | -0.569 ± 0.38 |
| ETNLFVLNVNNVLVVFWCPP | 6.938 ± 0.046 |
| MFKNRGG | 0.057 ± 0.36 |
| CPWTVMLHFSYDYCARGFKV | -0.505 ± 0.57 |
| LSVRDVLYGHVRWVGWGGVK | 0.886 ± 0.64 |
| CCQSFLLKSPSYRAMAFIWW | -0.929 ± 0.33 |

| Substance | amyloid nucleation score |
| --- | --- |
| PVSSLNYLVDT | 0.395 ± 0.62 |
| NKTLV | inactive |
| FCVGYRCWMYN | -0.086 ± 0.25 |
| IIITFLCNYFQGWNCLLVHF | 2.35 ± 0.1 |
| LTRSRGVSRLYIVRGVTDVW | 0.076 ± 0.43 |
| TRHWVIRQVSSTRDKYTKHA | 0.217 ± 0.66 |
| ALYSDRDI | 0.939 ± 0.29 |
| FMYKMGSYGMDM | -0.57 ± 0.5 |
| LRVTSFMIMQLDLECPRCQI | -0.007 ± 0.46 |
| VMGFGTCVRKQCSNYLKGIE | 0.476 ± 0.63 |
| RGNSFIRRY | 0.285 ± 0.47 |
| NSSKAMKKQVHLLFFRK | 0.699 ± 0.42 |
| QLSYLTFFCFVP | 7.183 ± 0.052 |
| RDYFTN | 0.789 ± 0.9 |
| GMDTGNITAQSMAGLPRRAS | -0.299 ± 0.49 |
| DLVCDFYVGLV | 2.42 ± 0.085 |
| SGILNAKLNSIGIEKSYAGF | -2.07 ± 2.4 |
| NIAYQTDSGVRLRFVTDSRG | inactive |
| IGTYGHRMELLIGSRCKSRT | -0.15 ± 0.22 |
| GYGLSAL | 1.08 ± 0.73 |
| ERDCPYRTMGLRCVNYRFRG | 3.64 ± 0.14 |
| FLSTCGCFRKLGWVMCECLG | -0.19 ± 0.47 |
| QWLAVVVIKVGLTWQYRFGG | 0.198 ± 0.91 |
| LNHIRRTVR | 1.23 ± 0.53 |
| NICTLYPT | 0.236 ± 1.1 |

| Substance | amyloid nucleation score |
| --- | --- |
| SVGEDSSFRRDSKINEGDCD | 0.968 ± 0.85 |
| WTCLKQEPLAWRWL | -0.093 ± 0.94 |
| VRKCRVNYGENGFKYRTRTM | 0.739 ± 0.4 |
| NIVSALRYITPYYLAAYPIT | 0.025 ± 0.36 |
| GRLSYIIRSYSLIRV | -1.21 ± 0.5 |
| NNSYFMCNTLRRVLMGLLLG | 1.11 ± 0.65 |
| MSMKQEEVDGSSW | -0.553 ± 1.5 |
| LTNFNAWR | 0.098 ± 0.47 |
| IVTSMSYNFLLKLMAGPQLR | 0.274 ± 0.67 |
| TVLFV | 0.298 ± 0.38 |
| FLTNNLYCTPYF | 3.19 ± 0.079 |
| SPGMWGMGVDNSKSGRWALR | 1.89 ± 0.28 |
| CNYSSSTVGYRSDMRVCSDT | 0.405 ± 0.61 |
| SSAGMTRTKNGPPC | 2.89 ± 0.082 |
| RIGTGSHLWII | -0.083 ± 0.6 |
| ADCGRSVLTKVKRCDTFFSG | 0.023 ± 0.27 |
| TYPYFDWPFRTRRLMEVSET | -0.4 ± 0.63 |
| DLYKSVPKHNQSNMSDSTES | -0.631 ± 0.6 |
| MQLTFAVKLGENRE | 2.77 ± 0.079 |
| AFCRCNNRKVEQLMNLCGVF | -0.771 ± 0.49 |
| NGVMESGNRRTLLRPTVVET | -0.016 ± 1.2 |
| RWYWIF | 4.6 ± 0.069 |
| CSKRTTYYFPWFICELTRLV | -0.195 ± 0.6 |
| TPSLAEADCL | -0.909 ± 2.7 |
| PVFGETGDY | -0.393 ± 0.4 |

| Substance | amyloid nucleation score |
| --- | --- |
| GTMKWALYSDYLSSTFTIYH | 0.137 ± 0.26 |
| MLSII | -1.39 ± 1.7 |
| ISLKG | 0.655 ± 0.59 |
| YPLVFRIMDVVSPPPHWVLF | -0.219 ± 1.2 |
| MHRGDVMRSSWNHDGVGTVR | 0.048 ± 1.2 |
| YGNLYCQTFLVWCRNIFLLI | 0.255 ± 0.41 |
| MRRRIQLDLRRFDPSCMKDV | -1.66 ± 1.1 |
| LYRFWCYALST | inactive |
| TEALYWRLYMGQNKILSCRG | 0.366 ± 0.61 |
| YPTSCVYMCQQAKPFLVLIL | -0.655 ± 0.6 |
| PHSSFPESSCKGSGSVSWAE | -0.172 ± 0.74 |
| TLQLICYY | 3.29 ± 0.14 |
| FCCMGDMYFCSDFQSVSLFL | 8.454 ± 0.065 |
| AFRYDRVWVGQQLFGQECRP | 0.054 ± 0.46 |
| SAWWIGMMWCSSSSYLEIGG | -0.586 ± 0.39 |
| MIMLIWVINSLTYGLEGLTA | 0.919 ± 0.39 |
| PRGLP | 0.694 ± 0.9 |
| YPGNSGSIY | -0.266 ± 0.91 |
| NCNSGSNDTGFWQMASRTGL | 0.071 ± 0.4 |
| LFFGSTLMDATFGYGDSDCN | 0.828 ± 0.62 |
| MFRALVCITVPILHKATNM | -0.689 ± 0.81 |
| FRVMNRGAFYMRFKLG | 1.04 ± 0.67 |
| LICVGCSCYSLKLSYNSSGL | 5.79 ± 0.058 |
| MEAWRHSTSACSDGA | -0.245 ± 0.39 |
| CLGYGYSSEDTQTSLCSGVE | -0.642 ± 1 |

| Substance | amyloid nucleation score |
| --- | --- |
| TLILVTLMASIRNDTRTSWS | 0.979 ± 0.54 |
| ISLIFHVMNDLWCIAIELGS | 0.183 ± 0.59 |
| QLTSVSIFWYPF | -1.46 ± 2.4 |
| GRFRLVMVFCAGNGNAGGER | 1.52 ± 0.52 |
| VFVSCIILRRYFYMFLVGPF | 0.752 ± 0.45 |
| SNAIDRAHPYRFGFCVNDVQ | -0.279 ± 0.47 |
| YPMRTQRVASHMV | -0.383 ± 0.58 |
| LSWVVVVSNKYGQTMTCVVI | -0.326 ± 0.5 |
| NGYELYTDQGGQLVVCDESS | -2.07 ± 1.6 |
| CLEVGFVCWNCNRLFKCLCQ | 1.1 ± 0.56 |
| EDSMNNL | -0.127 ± 0.84 |
| VMRVFILSMFWIVSECNRSY | 2.38 ± 0.23 |
| YSYSGVRMVVILNWHGKWWC | 4.87 ± 0.096 |
| CLLLVMTVTGGGSVTMLSQM | -0.078 ± 0.32 |
| INSRAIRLAKGDSVSWSSHG | -0.244 ± 0.32 |
| MWSIYMHVAHLGMQTRGCCR | 1.76 ± 0.22 |
| RALVDRLSTS | 0.472 ± 0.82 |
| AWFGYISYWNEFFLWDCFWS | -0.366 ± 0.4 |
| RGPLDP | 0.361 ± 0.45 |
| MGHTGYFQCKVATWCEGE | 0.792 ± 0.92 |
| LSGFLSYYLCKPKA | -0.887 ± 0.38 |
| FTVVISSLNEGEEHRVWCKF | -0.444 ± 1.2 |
| RGLYFNALSR | -0.167 ± 0.43 |
| SSYAHAVRTQDFKLASGHYV | -0.7 ± 0.88 |
| SLMKELKF | -0.034 ± 0.73 |

| Substance | amyloid nucleation score |
| --- | --- |
| IVYRPLAFVAVSCSESGHSV | 4.56 ± 0.087 |
| VQWLHDMLVHFN | -0.022 ± 1 |
| IYEMVGLTNVEFWYTKKYCS | -0.003 ± 0.18 |
| NGFLTSRCMLVCMKGMV | 0.729 ± 0.34 |
| GGQITYPMDLKVGRLCEDAL | inactive |
| QGWKGSC | -0.385 ± 1.4 |
| NPSGFRSTEWYV | -0.421 ± 0.56 |
| TTVRGASANHVLTCYCPHYL | 0.601 ± 0.82 |
| PQSHQKTRTFLFMRSTSSMW | -0.847 ± 0.52 |
| TGRSTSTG | inactive |
| RYSSPSRGTAMFSLLYLYVY | 0.694 ± 0.97 |
| FFVLRLSLTFWSCKS | 1.3 ± 0.56 |
| RSIRC | -0.615 ± 1.1 |
| DCIACRECSMTSKLLGGLGT | 0.859 ± 0.39 |
| QCSCSKWLAIRDWDGSSKMK | 0.082 ± 1.6 |
| ARQGASLGVK | -1.11 ± 1.5 |
| VVADVAPR | -0.14 ± 0.34 |
| CLNWVCRRFWVSITHFWAWV | 0.066 ± 0.51 |
| TGFTSLGGYLKVFNIICWIH | 3.39 ± 0.097 |
| VFAVERCDFSLRPNVMLVSY | 1.08 ± 0.92 |
| CRYSACAKRMSSFCRVRMCL | 0.194 ± 0.66 |
| GDSLTLTLFRIIYIGFRTDY | -1.03 ± 0.44 |
| FCVRWILPLDISMGDRHSSE | 0.592 ± 0.49 |
